# T1: GST-ABI-1 (glutathione-S-transferase fused to the N terminus of full-length C. elegans ABI-1) (C. elegans, UniProt Q10929 1-469)
# T1 construct: ABI-1, C. elegans homolog of the Abi proteins; full-length abi-1 from cDNA yk1204a12, bp 47-1,456; Cloned in pDEST15 (Gateway). bp 47-1,456 is 1,410 bp, i.e. 469 codons and a stop if the stop codon is included; not shown: GST, N-terminal, kept
# T1 sequence (looked up): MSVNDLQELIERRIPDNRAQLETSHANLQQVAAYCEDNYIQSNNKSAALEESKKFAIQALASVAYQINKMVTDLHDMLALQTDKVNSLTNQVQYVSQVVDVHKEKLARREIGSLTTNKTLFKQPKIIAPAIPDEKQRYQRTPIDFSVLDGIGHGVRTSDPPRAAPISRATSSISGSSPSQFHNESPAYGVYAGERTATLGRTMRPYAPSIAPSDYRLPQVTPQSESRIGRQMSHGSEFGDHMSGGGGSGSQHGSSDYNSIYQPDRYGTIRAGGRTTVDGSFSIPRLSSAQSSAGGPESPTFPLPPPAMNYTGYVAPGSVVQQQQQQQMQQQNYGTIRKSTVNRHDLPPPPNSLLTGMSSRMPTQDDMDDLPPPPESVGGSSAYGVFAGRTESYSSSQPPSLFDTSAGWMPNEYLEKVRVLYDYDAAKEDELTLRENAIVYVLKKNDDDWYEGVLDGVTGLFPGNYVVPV
# Assays:
# [1] = target: T1, GST-ABI-1 (glutathione-S-transferase …); assay: pull-down; GST, GST-ABI or GST-ABIΔ on glutathione beads incubated with 25 μl of a 100 μl 35S-labelled in vitro transcription/translation reaction; 2 h at 4 °C in PBB2 (25 mM HEPES pH 7.6, 150 mM NaCl, 5 mM MgCl2, 0.1 mM EDTA, 0.1% Tween-20, 0.25% BSA); washes with 300 and 250 mM NaCl; SDS-PAGE, autoradiography, phosphorimager quantitation; conditions: one partner purified
# [2] = target: GST-ABI-1Δ (N-terminal GST fusion to the product of the abi-1(tm494) allele) (C. elegans) (UniProt Q10929); assay: as above
binder,measurement,setting,value
"ABL-1(112–611), N-terminal fragment of C. elegans ABL-1 (domain or fragment, UniProt P03949 112-611, looked up, labeled with 35S in vitro, contains the SH3, SH2 and tyrosine kinase domains; Cloned in pDEST14 (Gateway) for expression in vitro; also called N-terminal half of ABL-1; source: in vitro translated (TNT T7 Quick Coupled Transcription/Translation system, Promega)) SSSSSAPLFVALYDFHGVGEEQLSLRKGDQVRILGYNKNNEWCEARLYSTRKNDASNQRRLGEIGWVPSNFIAPYNSLDKYTWYHGKISRSDSEAILGSGITGSFLVRESETSIGQYTISVRHDGRVFHYRINVDNTEKMFITQEVKFRTLGELVHHHSVHADGLICLLMYPASKKDKGRGLFSLSPNAPDEWELDRSEIIMHNKLGGGQYGDVYEGYWKRHDCTIAVKALKEDAMPLHEFLAEAAIMKDLHHKNLVRLLGVCTHEAPFYIITEFMCNGNLLEYLRRTDKSLLPPIILVQMASQIASGMSYLEARHFIHRDLAARNCLVSEHNIVKIADFGLARFMKEDTYTAHAGAKFPIKWTAPEGLAFNTFSSKSDVWAFGVLLWEIATYGMAPYPGVELSNVYGLLENGFRMDGPQGCPPSVYRLMLQCWNWSPSDRPRFRDIHFNLENLISSNSLNDEVQKQLKKNNDKKLESDKRRSNVRERSDSKSRHSSHHD",fold binding in the ABI-1 lane over the GST lane (phosphorimager),[1],8 fold
same,fold less ABL-1(112–611) bound than by ABI-1,[2],3 fold

# From article PMC2672617, “Abl Kinase Inhibits the Engulfment of Apopotic Cells in Caenorhabditis elegans” (PLoS Biology, 2009)
